Assay [1] deals with ovariectomized (OVX) female SD rats. Description: Bone density by DXA in ovariectomized (OVX) rats after hormone administration (Example 1). Type of assay: in vivo, rat. Particulars: for bone density of the ramal portion / bone density of the femur / bone density of the lumbar vertebrae: four times a week for 10 weeks; for bone density of the ramal portion: FIG. 2; for bone density of the femur / bone density of the lumbar vertebrae: DXA. The procedure:
Forty female SD rats were used. At the age of 20 weeks after birth, 35 of the animals were subjected to OVX (ovariectomy) and the remaining five were subjected to Sham operation. Starting at the age of 30 weeks when bone resorption progressed fully, animals of the OVX group were subcutaneously administered with hormones for 10 weeks on a four-times-a-week basis. Five of the group administered with human PTH (1-84) were administered a dose of 10 μg/kg body weight, another five a dose of 40 μg/kg body weight and the last five a dose of 150 μg/kg body weight. The group administered with 17β-estradiol as estrogen consisted of 5 rats, which were administered a dose of […] body weight. Ten rats were administered with both hormones, 17β-estradiol at a dose of 10 μg/kg body weight and human PTH (1-84) at different doses of 10 μg/kg body weight (in 5 rats) and 150 μg/kg body weight (in the other five). After the hormone administration and at the age of 40 weeks after birth, the mandibular bone, femur and lumbar vertebrae were extracted and measured for bone density and bone mineral content by DXA (Aloca). Measurement on the mandibular bone was conduced at two sites, the alveolar bone portion including the posterior teeth and the ramal portion.

Assay [2] deals with ovariectomized female SD rats with tooth removal. The assay can be described thus: Bone density and bone mineral content by DXA in OVX rats with upper jaw posterior teeth extracted (Example 2). Type of assay: in vivo, rat. Particulars: 150 μg/kg body weight s.c., four times a week for 10 weeks. From the text:
Twenty-three female SD rats (body weight; 230-250 g) were used. At the age of 20 weeks after birth, 15 of the animals were subjected to OVX (ovariectomy) and the remaining eight were subjected to Sham operation. Then, at the age of 22 weeks after birth, ten of the ovariectomized rats and four in the Sham operation group had the posterior teeth in the upper jaw extracted. Starting at the age of 30 weeks when bone resorption progressed fully, five of the ovariectomized rats that had the posterior teeth in the upper jaw extracted were subcutaneously administered with human PTH (1-84) at a dose of 150 μg/kg body weight for 10 weeks on a four-time-a-week basis. After the administration of human PTH (1-84) and at the age of 40 weeks after birth, the whole mandibular bone was extracted and the bone densities and bone mineral contents in the whole mandibular bone and the mandibular molar portion were measured by DXA (Aloca).

Where [3] appears, read: OVX rats, 10, 40, 150 μg/kg body weight s.c.
Setting [4] is: OVX rats, dose of 150 μg/kg body weight s.c.

`C[C@]12CC[C@@H]3c4ccc(O)cc4CC[C@H]3[C@@H]1CC[C@@H]2O` [17β-estradiol, estra-1,3,5(10)-trien-3,17β-diol, reference compound]: in assay [1] (OVX rats, s.c.), the “bone density of the ramal portion” value is reported as “did not recover”.

B1: human PTH (1-84) (protein, UniProt P01270 32-115, looked up)
Parathyroid hormone: SVSEIQLMHNLGKHLNSMERVEWLRKKLQDVHNFVALGAPLAPRDAGSQRPRKKEDNVLVESHEKSLGEADKADVNVLTKAKSQ
modifications: Parathyroid hormone
notes: human parathyroid hormone consisting of 84 amino acid residues
Turning to B1, the “bone mineral content of whole mandibular bone” value in assay [2] (FIG. 3) was “increased noticeably”. Besides, the “bone mineral content of the mandibular molar portion” value in assay [2] (FIG. 4) is “increased noticeably”. Besides, the “bone density of the mandibular alveolar bone portion” value in assay [1] (OVX rats, 150 μg/kg body weight human PTH (1-84) alone, s.c., 10 weeks, FIG. 1) was “significant increases over the OVX group and returned to the level for the Sham operation group”. For the same molecule, in assay [1] (setting [3]), the “bone density of the femur” value is listed as “increased in a dose-dependent manner” and the “bone density of the lumbar vertebrae” value is on record as “increased in a dose-dependent manner”. Moreover, in assay [1] (setting [4]), the “bone density of the femur” value was “almost recovered to the level for the Sham operation group” and the “bone density of the lumbar vertebrae” value is given as “almost recovered to the level for the Sham operation group”. The “bone density of the ramal portion” value in assay [1] (OVX rats, s.c.) is given as “did not recover”. In assay [1] (ovariectomized aged female rats, summary statement), the “bone density in the mandibular bone (summary)” value is on record as “a distinct improvement in bone density”.
